Data reported in patent US20240317872A1.

Tests used:
[1] = target: human 4-1BB (human) (UniProt Q07011); experiment: cell-based or functional assay
[2] = target: human 4-1BB (human) (UniProt Q07011); experiment: flow cytometry on CHO-K1 cells expressing 4-1BB

Sequence of human 4-1BB (human) (Q07011 24-255): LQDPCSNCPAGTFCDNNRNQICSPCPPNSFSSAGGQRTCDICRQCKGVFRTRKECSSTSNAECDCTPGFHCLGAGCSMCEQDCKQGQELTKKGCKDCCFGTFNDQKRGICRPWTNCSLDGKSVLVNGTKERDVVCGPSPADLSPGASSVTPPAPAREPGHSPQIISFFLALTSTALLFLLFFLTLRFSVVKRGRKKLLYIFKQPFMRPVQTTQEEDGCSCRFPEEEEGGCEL

reporter gene assay (NFkB luciferase), EC50 [1]: 0.33 nM
reporter gene assay (NFkB luciferase), Top (RLU) [1]: 1.09e+06 RLU
EC50 [2]: 0.123 nM
Top (MFI) [2]: 1120 MFI
Substance: WBP342-BMK3.hIgG4 (antibody)
